tested on: Escherichia coli TOP10; experiment: shrunken log2 fold change of peptide-encoding DNA abundance (4.5 h post-induction vs induction); higher = less antimicrobial activity (less host growth inhibition); conditions: time post-induction: 4.5 h; library: site-saturation at positions 5, 18, 19, 20
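Note: peptides expressed intracellularly from a pBAD plasmid library in pooled LB shake-flask culture, induced with 0.3% L-arabinose, DNA abundance read by NGS, three biological replicates, DESeq2 with apeglm shrinkage.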

Row | Sequence | shrunken log2 fold change
1 | RRIRCRPPRLPRPRPRPFMPPRP | -0.402
2 | RRIRERPPRLPRPRPRPDRCPRP | 0.0731
3 | RRIRFRPPRLPRPRPRPYLQPRP | -0.527
4 | RRIRLRPPRLPRPRPRPRESPRP | 0.787
5 | RRIRARPPRLPRPRPRPSNHPRP | -0.089
6 | RRIRPRPPRLPRPRPRPTTFPRP | -0.173
7 | RRIRWRPPRLPRPRPRPGPVPRP | 0.423
8 | RRIRMRPPRLPRPRPRPNQAPRP | -0.00973
9 | RRIRMRPPRLPRPRPRPNFSPRP | 0.0634
10 | RRIRDRPPRLPRPRPRPAKFPRP | 0.0399
11 | RRIRDRPPRLPRPRPRPGKSPRP | 0.0637
12 | RRIRRRPPRLPRPRPRPEKNPRP | 0.289
13 | RRIRSRPPRLPRPRPRPMDTPRP | 0.0136
14 | RRIRPRPPRLPRPRPRPDRVPRP | 0.187
15 | RRIRNRPPRLPRPRPRPEATPRP | 0.556
16 | RRIRTRPPRLPRPRPRPGHRPRP | -0.216
17 | RRIRPRPPRLPRPRPRPAARPRP | 0.727
18 | RRIRVRPPRLPRPRPRPCLFPRP | -0.592
19 | RRIRCRPPRLPRPRPRPGYRPRP | -0.682
20 | RRIRWRPPRLPRPRPRPANQPRP | 0.559
21 | RRIRGRPPRLPRPRPRPPSGPRP | 0.766
22 | RRIRARPPRLPRPRPRPVLCPRP | 0.43
23 | RRIRFRPPRLPRPRPRPSDSPRP | -0.21
24 | RRIRKRPPRLPRPRPRPKAMPRP | -0.0457
25 | RRIRKRPPRLPRPRPRPYLRPRP | -0.0481

Row | Sequence | shrunken log2 fold change
26 | RRIRWRPPRLPRPRPRPSFLPRP | -0.351
27 | RRIRERPPRLPRPRPRPVPVPRP | 0.0913
28 | RRIRYRPPRLPRPRPRPRQKPRP | 0.114
29 | RRIRRRPPRLPRPRPRPWGWPRP | 0.482
30 | RRIRVRPPRLPRPRPRPVKCPRP | -0.163
31 | RRIRMRPPRLPRPRPRPRMCPRP | 0.0537
32 | RRIRWRPPRLPRPRPRPTMTPRP | 0.328
33 | RRIRYRPPRLPRPRPRPYFTPRP | -0.981
34 | RRIRLRPPRLPRPRPRPEVEPRP | 0.0199
35 | RRIRGRPPRLPRPRPRPNLNPRP | 0.0742
36 | RRIRRRPPRLPRPRPRPPSGPRP | 0.682
37 | RRIRMRPPRLPRPRPRPWAMPRP | 0.0684
38 | RRIRRRPPRLPRPRPRPTYLPRP | -0.348
39 | RRIRYRPPRLPRPRPRPRFSPRP | -0.144
40 | RRIRARPPRLPRPRPRPMEKPRP | -0.00226
41 | RRIRSRPPRLPRPRPRPHPFPRP | -0.25
42 | RRIRKRPPRLPRPRPRPETMPRP | 0.0612
43 | RRIRNRPPRLPRPRPRPRFGPRP | 0.399
44 | RRIRTRPPRLPRPRPRPIKPPRP | -0.0369
45 | RRIRTRPPRLPRPRPRPTYEPRP | -0.174
46 | RRIRMRPPRLPRPRPRPMQEPRP | 0.0303
47 | RRIRTRPPRLPRPRPRPTVWPRP | -0.049
48 | RRIRWRPPRLPRPRPRPAVTPRP | 0.599
49 | RRIRTRPPRLPRPRPRPHFWPRP | 0.0783
50 | RRIRLRPPRLPRPRPRPDDSPRP | 0.0276

Row | Sequence | shrunken log2 fold change
51 | RRIRDRPPRLPRPRPRPSKTPRP | 0.0521
52 | RRIRVRPPRLPRPRPRPCTTPRP | 0.167
53 | RRIRVRPPRLPRPRPRPPSVPRP | 0.129
54 | RRIRPRPPRLPRPRPRPMDKPRP | -0.0612
55 | RRIRERPPRLPRPRPRPPNCPRP | -0.019
56 | RRIRFRPPRLPRPRPRPFWSPRP | -0.0458
57 | RRIRPRPPRLPRPRPRPWREPRP | -0.00316
58 | RRIRRRPPRLPRPRPRPCCWPRP | 0.322
59 | RRIRQRPPRLPRPRPRPLNCPRP | -0.0264
60 | RRIRVRPPRLPRPRPRPIKAPRP | 0.0466
61 | RRIRWRPPRLPRPRPRPMDGPRP | 0.309
62 | RRIRIRPPRLPRPRPRPHSHPRP | -0.912
63 | RRIRPRPPRLPRPRPRPYMFPRP | -0.897
64 | RRIRPRPPRLPRPRPRPGQFPRP | -0.0723
65 | RRIRTRPPRLPRPRPRPFTGPRP | -0.12
66 | RRIRWRPPRLPRPRPRPTYMPRP | -0.0572
67 | RRIRTRPPRLPRPRPRPNDIPRP | -0.873
68 | RRIRERPPRLPRPRPRPFMGPRP | -0.0195
69 | RRIRQRPPRLPRPRPRPPYTPRP | -0.552
70 | RRIRPRPPRLPRPRPRPTLCPRP | -0.0815
71 | RRIRKRPPRLPRPRPRPHNYPRP | -0.0761
72 | RRIRMRPPRLPRPRPRPSHVPRP | -0.0609
73 | RRIRKRPPRLPRPRPRPMTQPRP | -0.0547
74 | RRIRSRPPRLPRPRPRPCWLPRP | 0.102
75 | RRIRLRPPRLPRPRPRPINPPRP | 0.132

Row | Sequence | shrunken log2 fold change
76 | RRIRLRPPRLPRPRPRPGFHPRP | 0.0368
77 | RRIRMRPPRLPRPRPRPYKMPRP | -0.277
78 | RRIRKRPPRLPRPRPRPRNPPRP | 0.358
79 | RRIRPRPPRLPRPRPRPTSKPRP | 0.188
80 | RRIRSRPPRLPRPRPRPGDTPRP | 1.51
81 | RRIRLRPPRLPRPRPRPVFKPRP | -0.134
82 | RRIRDRPPRLPRPRPRPDLHPRP | -0.0715
83 | RRIRHRPPRLPRPRPRPAIVPRP | -0.167
84 | RRIRGRPPRLPRPRPRPADPPRP | 0.585
85 | RRIRSRPPRLPRPRPRPSSMPRP | -0.422
86 | RRIRDRPPRLPRPRPRPEGLPRP | 0.0425
87 | RRIRTRPPRLPRPRPRPDIGPRP | -0.187
88 | RRIRTRPPRLPRPRPRPWEDPRP | 0.0242
89 | RRIRIRPPRLPRPRPRPGNKPRP | -0.569
90 | RRIRRRPPRLPRPRPRPSNWPRP | -0.192
91 | RRIRGRPPRLPRPRPRPSYEPRP | 0.0732
92 | RRIRLRPPRLPRPRPRPGVHPRP | -0.308
93 | RRIRDRPPRLPRPRPRPQHNPRP | -0.554
94 | RRIRRRPPRLPRPRPRPLLNPRP | -0.00444
95 | RRIRMRPPRLPRPRPRPTHIPRP | -0.363
96 | RRIRLRPPRLPRPRPRPEKMPRP | -0.35
97 | RRIRARPPRLPRPRPRPQPYPRP | -0.3
98 | RRIRIRPPRLPRPRPRPLRHPRP | -0.172
99 | RRIRKRPPRLPRPRPRPDKQPRP | 0.0638
100 | RRIRQRPPRLPRPRPRPRDWPRP | 1.63

Row | Sequence | shrunken log2 fold change
101 | RRIRNRPPRLPRPRPRPVSKPRP | 0.124
102 | RRIRGRPPRLPRPRPRPYEWPRP | -0.027
103 | RRIRSRPPRLPRPRPRPPGTPRP | 0.396
104 | RRIRFRPPRLPRPRPRPMKQPRP | -0.0442
105 | RRIRARPPRLPRPRPRPMYWPRP | -0.0443
106 | RRIRVRPPRLPRPRPRPFTMPRP | -0.368
107 | RRIRLRPPRLPRPRPRPRQSPRP | -0.0892
108 | RRIRIRPPRLPRPRPRPMTPPRP | 0.0425
109 | RRIRGRPPRLPRPRPRPRQKPRP | 1.43
110 | RRIRGRPPRLPRPRPRPEHCPRP | 0.549
111 | RRIRNRPPRLPRPRPRPMCVPRP | -0.166
112 | RRIRCRPPRLPRPRPRPIHVPRP | -0.377
113 | RRIRRRPPRLPRPRPRPVPQPRP | 0.28
114 | RRIRQRPPRLPRPRPRPPKYPRP | -0.313
115 | RRIRRRPPRLPRPRPRPQRGPRP | 0.399
116 | RRIRRRPPRLPRPRPRPTYHPRP | 0.648
117 | RRIRVRPPRLPRPRPRPVMVPRP | -0.166
118 | RRIRFRPPRLPRPRPRPACFPRP | 0.0876
119 | RRIRIRPPRLPRPRPRPIMWPRP | -0.0162
120 | RRIRQRPPRLPRPRPRPYFYPRP | -0.652
121 | RRIRHRPPRLPRPRPRPKIPPRP | -0.254
122 | RRIRRRPPRLPRPRPRPNMKPRP | 0.069
123 | RRIRLRPPRLPRPRPRPGDYPRP | -0.0616
124 | RRIRNRPPRLPRPRPRPVCQPRP | -0.0808
125 | RRIRERPPRLPRPRPRPPLYPRP | 0.127

Row | Sequence | shrunken log2 fold change
126 | RRIRCRPPRLPRPRPRPAVVPRP | -0.243
127 | RRIRCRPPRLPRPRPRPPFEPRP | 0.136
128 | RRIRWRPPRLPRPRPRPQSAPRP | 0.372
129 | RRIRWRPPRLPRPRPRPWLTPRP | -0.0976
130 | RRIRNRPPRLPRPRPRPFDQPRP | -0.0155
131 | RRIRYRPPRLPRPRPRPCGDPRP | -0.0424
132 | RRIRWRPPRLPRPRPRPDLGPRP | -0.135
133 | RRIRERPPRLPRPRPRPVLVPRP | -0.0151
134 | RRIRIRPPRLPRPRPRPYRQPRP | -0.326
135 | RRIRNRPPRLPRPRPRPQDFPRP | -0.0385
136 | RRIRIRPPRLPRPRPRPGWEPRP | 0.0557
137 | RRIRKRPPRLPRPRPRPVCQPRP | 0.436
138 | RRIRARPPRLPRPRPRPTPGPRP | 0.826
139 | RRIRGRPPRLPRPRPRPHTVPRP | -0.311
140 | RRIRNRPPRLPRPRPRPYEDPRP | -0.173
141 | RRIRKRPPRLPRPRPRPWCQPRP | -0.0158
142 | RRIRFRPPRLPRPRPRPSGYPRP | 0.00547
143 | RRIRQRPPRLPRPRPRPSHWPRP | -0.153
144 | RRIRGRPPRLPRPRPRPHQEPRP | 0.305
145 | RRIRNRPPRLPRPRPRPYEHPRP | -0.151
146 | RRIRMRPPRLPRPRPRPFVDPRP | -0.338
147 | RRIRRRPPRLPRPRPRPEDHPRP | 0.122
148 | RRIRNRPPRLPRPRPRPSFAPRP | 0.00213
149 | RRIRSRPPRLPRPRPRPPPSPRP | 0.785
150 | RRIRHRPPRLPRPRPRPRWIPRP | -0.108

Reference: the supplement of paper PMC9112550, “Optimization of the antimicrobial peptide Bac7 by deep mutational scanning” (BMC Biology, 2022)
